Laboratory results from patent US20130115589A1 (UNIVERSITY OF TOKYO, published 2013).

Target: T1, wild-type glycoprotein B (gB) of HSV-1(F) (Herpes simplex virus 1 (HSV-1(F)), UniProt P06436 30-903)
T1 construct: whole, on cells; also called wild-type gB
Assay: flow cytometry on infected 293T cells, PE-labeled anti-human IgG secondary antibody

B1: NMHC-IIArod-Ig (fusion protein of the C terminal fragment of NMHC-IIA and Ig) (Fc fusion)
chain: LAQAKENEKKLKSMEAEMIQLQEELAAAERAKRQAQQERDELADEIANSSGKGALALEEKRRLEARIAQLEEELEEEQGNTELINDRLKKANLQIDQINTDLNLERSHAQKNENARQQLERQNKELKVKLQEMEGTVKSKYKASITALEAKIAQLEEQLDNETKERQAACKQVRRTEKKLKDVLLQVDDERRNAEQYKDQADKASTRLKQLKRQLEEAEEEAQRANASRRKLQRELEDATETADAMNREVSSLKNKLRRGDLPFVVPRRMARKGAGDGSDEEVDGKADGAEAKPAE
notes: also called soluble C-terminal fragment of NMHC-IIA; soluble form of NMHC-IIA
B1: binds.
